The chains are these.
B1: CSNK1G1 (parent)
chain: GSLPWQGLKADTLKERYQKIGDTK
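Further: lentivirally expressed fusions sorted by FACS into six bins by GFP to DsRed ratio, PSI derived from sequencing read proportions per bin multiplied by bin number.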

Variants of B1 are the subject of this data set. Put plainly: protein stability index of a GFP-peptide fusion (GPS, HEK-293T) (PSI 1-6); higher = more stable. The conditions noted are these: c terminus: a fixed tail appended.
Turning to GSLPWLGLKADTLKERYQKIGDTK, the protein stability index was 3.77.

Consider GSLPWVGLKADTLKERYQKIGDTK, for which the protein stability index was determined as 4.33.

Consider GSLPWHGLKADTLKERYQKIGDTK, for which the protein stability index was 4.62.

As for GSLPWDGLKADTLKERYQKIGDTK, the protein stability index came to 4.48.

In the case of GSLPWEGLKADTLKERYQKIGDTK, the protein stability index was found to be 4.32.

In the case of GSLPWGGLKADTLKERYQKIGDTK, the protein stability index turned out to be 4.13.

Regarding GSLPWWGLKADTLKERYQKIGDTK, the protein stability index came out at 2.74.

For GSLPWMGLKADTLKERYQKIGDTK, the protein stability index turned out to be 4.07.

Turning to GSLPWCGLKADTLKERYQKIGDTK, the protein stability index was found to be 3.4.

For GSLPWIGLKADTLKERYQKIGDTK, the protein stability index was 3.94.

With GSLPWKGLKADTLKERYQKIGDTK, the protein stability index came to 4.13.

GSLPWPGLKADTLKERYQKIGDTK: the protein stability index worked out at 4.57.

In the case of GSLPWNGLKADTLKERYQKIGDTK, the protein stability index was found to be 3.92.

Regarding GSLPWRGLKADTLKERYQKIGDTK, the protein stability index is 3.96.

With GSLPWQGYKADTLKERYQKIGDTK, the protein stability index worked out at 3.63.

Regarding GSLPWQGVKADTLKERYQKIGDTK, the protein stability index was found to be 4.66.

GSLPWQGKKADTLKERYQKIGDTK: the protein stability index amounted to 4.17.

On to GSLPWQGNKADTLKERYQKIGDTK, for which the protein stability index turned out to be 4.58.

GSLPWQGIKADTLKERYQKIGDTK: the protein stability index came to 4.13.

As for GSLPWQGAKADTLKERYQKIGDTK, the protein stability index is 3.73.

Turning to GSLPWQGFKADTLKERYQKIGDTK, the protein stability index turned out to be 3.54.

Turning to GSLPWQGTKADTLKERYQKIGDTK, the protein stability index was 4.9.

In the case of GSLPWQGDKADTLKERYQKIGDTK, the protein stability index is 4.75.

Turning to GSLPWQGPKADTLKERYQKIGDTK, the protein stability index is 4.43.

As to GSLPWQGGKADTLKERYQKIGDTK, the protein stability index worked out at 4.76.

Consider GSLPWQGSKADTLKERYQKIGDTK, for which the protein stability index was 4.64.

Regarding GSLPWQGCKADTLKERYQKIGDTK, the protein stability index amounted to 3.35.

On to GSLPWQGMKADTLKERYQKIGDTK, for which the protein stability index is 4.35.

As for GSLPWQGEKADTLKERYQKIGDTK, the protein stability index came out at 4.44.

For the variant GSLPWQGWKADTLKERYQKIGDTK, the protein stability index was determined as 3.69.

On to GSLPWQGQKADTLKERYQKIGDTK, for which the protein stability index was determined as 4.24.

For GSLPWQGRKADTLKERYQKIGDTK, the protein stability index worked out at 4.32.

Turning to GSLPWQGHKADTLKERYQKIGDTK, the protein stability index amounted to 4.36.

Turning to GSLPWQGLKADLLKERYQKIGDTK, the protein stability index amounted to 3.37.

As for GSLPWQGLKADVLKERYQKIGDTK, the protein stability index amounted to 4.2.

GSLPWQGLKADMLKERYQKIGDTK: the protein stability index worked out at 3.94.

Turning to GSLPWQGLKADPLKERYQKIGDTK, the protein stability index stood at 4.86.

Take GSLPWQGLKADFLKERYQKIGDTK: the protein stability index came to 2.86.

On to GSLPWQGLKADYLKERYQKIGDTK, for which the protein stability index amounted to 3.51.

As for GSLPWQGLKADKLKERYQKIGDTK, the protein stability index is 4.28.

As for GSLPWQGLKADGLKERYQKIGDTK, the protein stability index came to 3.83.

Take GSLPWQGLKADWLKERYQKIGDTK: the protein stability index turned out to be 3.27.

GSLPWQGLKADCLKERYQKIGDTK: the protein stability index came to 4.06.

GSLPWQGLKADQLKERYQKIGDTK: the protein stability index amounted to 4.19.

For GSLPWQGLKADDLKERYQKIGDTK, the protein stability index was determined as 4.68.

Turning to GSLPWQGLKADRLKERYQKIGDTK, the protein stability index was found to be 4.33.

For the variant GSLPWQGLKADHLKERYQKIGDTK, the protein stability index is 3.71.

Regarding GSLPWQGLKADSLKERYQKIGDTK, the protein stability index was found to be 4.58.

Consider GSLPWQGLKADNLKERYQKIGDTK, for which the protein stability index was found to be 4.07.

Consider GSLPWQGLKADELKERYQKIGDTK, for which the protein stability index was 4.85.

Regarding GSLPWQGLKADALKERYQKIGDTK, the protein stability index is 3.99.

Turning to GSLPWQGLKADILKERYQKIGDTK, the protein stability index was determined as 3.42.

On to GSLPWQGLTADTLKERYQKIGDTK, for which the protein stability index stood at 4.35.

Consider GSLPWQGLLADTLKERYQKIGDTK, for which the protein stability index came out at 3.18.

As for GSLPWQGLQADTLKERYQKIGDTK, the protein stability index was found to be 3.89.

As to GSLPWQGLRADTLKERYQKIGDTK, the protein stability index stood at 4.09.

For the variant GSLPWQGLGADTLKERYQKIGDTK, the protein stability index was 3.9.

With GSLPWQGLHADTLKERYQKIGDTK, the protein stability index is 4.24.

Turning to GSLPWQGLIADTLKERYQKIGDTK, the protein stability index was determined as 3.79.

Take GSLPWQGLVADTLKERYQKIGDTK: the protein stability index amounted to 3.77.

Take GSLPWQGLPADTLKERYQKIGDTK: the protein stability index came to 5.08.

GSLPWQGLWADTLKERYQKIGDTK: the protein stability index is 3.58.

Take GSLPWQGLMADTLKERYQKIGDTK: the protein stability index turned out to be 3.87.

Take GSLPWQGLSADTLKERYQKIGDTK: the protein stability index was 4.2.

With GSLPWQGLAADTLKERYQKIGDTK, the protein stability index came out at 3.71.

Take GSLPWQGLCADTLKERYQKIGDTK: the protein stability index turned out to be 3.93.

GSLPWQGLNADTLKERYQKIGDTK: the protein stability index came out at 4.46.

In the case of GSLPWQGLYADTLKERYQKIGDTK, the protein stability index is 4.13.

As for GSLPWQGLDADTLKERYQKIGDTK, the protein stability index was determined as 4.25.

Take GSLPWQGLFADTLKERYQKIGDTK: the protein stability index stood at 3.66.

Regarding GSLPWQGLEADTLKERYQKIGDTK, the protein stability index amounted to 4.69.

GSLGWQGLKADTLKERYQKIGDTK: the protein stability index was 4.02.

As for GSLSWQGLKADTLKERYQKIGDTK, the protein stability index was determined as 4.49.

Consider GSLQWQGLKADTLKERYQKIGDTK, for which the protein stability index worked out at 4.3.

With GSLFWQGLKADTLKERYQKIGDTK, the protein stability index came to 2.84.

In the case of GSLTWQGLKADTLKERYQKIGDTK, the protein stability index is 4.08.

Regarding GSLRWQGLKADTLKERYQKIGDTK, the protein stability index is 4.37.

With GSLCWQGLKADTLKERYQKIGDTK, the protein stability index was determined as 3.42.

For GSLLWQGLKADTLKERYQKIGDTK, the protein stability index was determined as 3.78.

In the case of GSLHWQGLKADTLKERYQKIGDTK, the protein stability index worked out at 4.17.

As for GSLWWQGLKADTLKERYQKIGDTK, the protein stability index came out at 3.09.

Take GSLDWQGLKADTLKERYQKIGDTK: the protein stability index is 4.37.

In the case of GSLIWQGLKADTLKERYQKIGDTK, the protein stability index stood at 3.67.

Consider GSLEWQGLKADTLKERYQKIGDTK, for which the protein stability index came to 4.46.

With GSLNWQGLKADTLKERYQKIGDTK, the protein stability index came to 3.95.

Regarding GSLVWQGLKADTLKERYQKIGDTK, the protein stability index was 4.09.

For GSLKWQGLKADTLKERYQKIGDTK, the protein stability index was 4.28.

Consider GSLYWQGLKADTLKERYQKIGDTK, for which the protein stability index stood at 3.73.

GSLAWQGLKADTLKERYQKIGDTK: the protein stability index was found to be 4.02.

With GSLMWQGLKADTLKERYQKIGDTK, the protein stability index is 4.55.

As to GSYPWQGLKADTLKERYQKIGDTK, the protein stability index is 4.09.

On to GSTPWQGLKADTLKERYQKIGDTK, for which the protein stability index was found to be 4.09.

Take GSVPWQGLKADTLKERYQKIGDTK: the protein stability index came to 4.37.

In the case of GSWPWQGLKADTLKERYQKIGDTK, the protein stability index was 3.41.
